The values that follow come from US20140065163A1.

First the molecules themselves.
B1: MSB0010603 4K21 (4K21 hVH S56V-T62S hVL N28I-H34S-N53R-H93Y) (antibody, V domains shown)
VH: EVQLVESGGGLVQPGGSLRLSCAASGFAFSAYDMSWVRQAPGKRLELVAYISSGGSVFYYPDSVKGRFTISRDNAKNSLYLQMNSLRAEDTAVYYCTRHLGFDYWGQGTLVTVSS
VL: DIVMTQSPLSLPVTPGEPASISCRSSQSLVNSIGNTYLSWYLQKPGQSPQLLIYKVSRRFSGVPDRFSGSGSGTDFTLKISRVEAEDVGVYYCSQSTYVPPTFGQGTKVEIK
B2: MSB0010600 4K21 (4K21 hVH S55R-T62S hVL S27eY-N28I-H34S-N53R-H93Y) (antibody, V domains shown)
VH: EVQLVESGGGLVQPGGSLRLSCAASGFAFSAYDMSWVRQAPGKRLELVAYISSGGRSFYYPDSVKGRFTISRDNAKNSLYLQMNSLRAEDTAVYYCTRHLGFDYWGQGTLVTVSS
VL: DIVMTQSPLSLPVTPGEPASISCRSSQSLVNYIGNTYLSWYLQKPGQSPQLLIYKVSRRFSGVPDRFSGSGSGTDFTLKISRVEAEDVGVYYCSQSTYVPPTFGQGTKVEIK
B3: MSB0010602 4K21 (4K21 hVH S55K-T62S hVL S27eY-N28I-H34S-N53R-H93Y) (antibody, V domains shown)
VH: EVQLVESGGGLVQPGGSLRLSCAASGFAFSAYDMSWVRQAPGKRLELVAYISSGGKSFYYPDSVKGRFTISRDNAKNSLYLQMNSLRAEDTAVYYCTRHLGFDYWGQGTLVTVSS
VL: DIVMTQSPLSLPVTPGEPASISCRSSQSLVNYIGNTYLSWYLQKPGQSPQLLIYKVSRRFSGVPDRFSGSGSGTDFTLKISRVEAEDVGVYYCSQSTYVPPTFGQGTKVEIK
B4: MSB0010595 4K21 (4K21 hVH S56V-T62S hVL S27eY-N28I-H34S-N53R-H93Y) (antibody, V domains shown)
VH: EVQLVESGGGLVQPGGSLRLSCAASGFAFSAYDMSWVRQAPGKRLELVAYISSGGSVFYYPDSVKGRFTISRDNAKNSLYLQMNSLRAEDTAVYYCTRHLGFDYWGQGTLVTVSS
VL: DIVMTQSPLSLPVTPGEPASISCRSSQSLVNYIGNTYLSWYLQKPGQSPQLLIYKVSRRFSGVPDRFSGSGSGTDFTLKISRVEAEDVGVYYCSQSTYVPPTFGQGTKVEIK
B5: MSB0010601 4K21 (4K21 hVH S55K-T62S hVL N28I-H34S-N53R-H93Y) (antibody, V domains shown)
VH: EVQLVESGGGLVQPGGSLRLSCAASGFAFSAYDMSWVRQAPGKRLELVAYISSGGKSFYYPDSVKGRFTISRDNAKNSLYLQMNSLRAEDTAVYYCTRHLGFDYWGQGTLVTVSS
VL: DIVMTQSPLSLPVTPGEPASISCRSSQSLVNSIGNTYLSWYLQKPGQSPQLLIYKVSRRFSGVPDRFSGSGSGTDFTLKISRVEAEDVGVYYCSQSTYVPPTFGQGTKVEIK
B6: MSB0010599 4K21 (4K21 hVH S55R-T62S hVL N28I-H34S-N53R-H93Y) (antibody, V domains shown)
VH: EVQLVESGGGLVQPGGSLRLSCAASGFAFSAYDMSWVRQAPGKRLELVAYISSGGRSFYYPDSVKGRFTISRDNAKNSLYLQMNSLRAEDTAVYYCTRHLGFDYWGQGTLVTVSS
VL: DIVMTQSPLSLPVTPGEPASISCRSSQSLVNSIGNTYLSWYLQKPGQSPQLLIYKVSRRFSGVPDRFSGSGSGTDFTLKISRVEAEDVGVYYCSQSTYVPPTFGQGTKVEIK

Sequence of recombinant marmoset GM-CSF (Callithrix jacchus) (Callithrix jacchus) (chain, as listed by the source limits assumed, form in doubt): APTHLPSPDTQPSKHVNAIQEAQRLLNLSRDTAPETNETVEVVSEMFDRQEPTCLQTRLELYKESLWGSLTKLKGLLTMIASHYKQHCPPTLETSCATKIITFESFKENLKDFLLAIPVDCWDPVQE

This experiment has as its target recombinant marmoset GM-CSF (Callithrix jacchus) (Callithrix jacchus). Put plainly: cell-based or functional assay.
On to B1, for which the IC50, inhibition of marmoset GM-CSF induced TF-1 proliferation (1.9 nM) worked out at 0.7 nM.
Take B2: the IC50, inhibition of marmoset GM-CSF induced TF-1 proliferation (1.9 nM) came to 2 nM.
The same measure for B3: 1.3 nM.
In the case of B4, the IC50, inhibition of marmoset GM-CSF induced TF-1 proliferation (1.9 nM) came out at 1.5 nM.
As for B5, the IC50, inhibition of marmoset GM-CSF induced TF-1 proliferation (1.9 nM) came to 0.7 nM.
For B6, the IC50, inhibition of marmoset GM-CSF induced TF-1 proliferation (1.9 nM) was determined as 0.9 nM.
